Laboratory results: patent US20210063414A1, “METHODS FOR PREVENTING AND/OR TREATING BONE LOSS CONDITIONS BY MODULATING IRISIN” (Dana-Farber Cancer Institute, Inc., priority 2018, published 2021)

Biological target: T1, MLO-Y4 cell surface proteins (Mus musculus, UniProt O88492)
T1 construct: endogenous in cells; host or cells: MLO-Y4
T1 sequence (O88492 1-1403): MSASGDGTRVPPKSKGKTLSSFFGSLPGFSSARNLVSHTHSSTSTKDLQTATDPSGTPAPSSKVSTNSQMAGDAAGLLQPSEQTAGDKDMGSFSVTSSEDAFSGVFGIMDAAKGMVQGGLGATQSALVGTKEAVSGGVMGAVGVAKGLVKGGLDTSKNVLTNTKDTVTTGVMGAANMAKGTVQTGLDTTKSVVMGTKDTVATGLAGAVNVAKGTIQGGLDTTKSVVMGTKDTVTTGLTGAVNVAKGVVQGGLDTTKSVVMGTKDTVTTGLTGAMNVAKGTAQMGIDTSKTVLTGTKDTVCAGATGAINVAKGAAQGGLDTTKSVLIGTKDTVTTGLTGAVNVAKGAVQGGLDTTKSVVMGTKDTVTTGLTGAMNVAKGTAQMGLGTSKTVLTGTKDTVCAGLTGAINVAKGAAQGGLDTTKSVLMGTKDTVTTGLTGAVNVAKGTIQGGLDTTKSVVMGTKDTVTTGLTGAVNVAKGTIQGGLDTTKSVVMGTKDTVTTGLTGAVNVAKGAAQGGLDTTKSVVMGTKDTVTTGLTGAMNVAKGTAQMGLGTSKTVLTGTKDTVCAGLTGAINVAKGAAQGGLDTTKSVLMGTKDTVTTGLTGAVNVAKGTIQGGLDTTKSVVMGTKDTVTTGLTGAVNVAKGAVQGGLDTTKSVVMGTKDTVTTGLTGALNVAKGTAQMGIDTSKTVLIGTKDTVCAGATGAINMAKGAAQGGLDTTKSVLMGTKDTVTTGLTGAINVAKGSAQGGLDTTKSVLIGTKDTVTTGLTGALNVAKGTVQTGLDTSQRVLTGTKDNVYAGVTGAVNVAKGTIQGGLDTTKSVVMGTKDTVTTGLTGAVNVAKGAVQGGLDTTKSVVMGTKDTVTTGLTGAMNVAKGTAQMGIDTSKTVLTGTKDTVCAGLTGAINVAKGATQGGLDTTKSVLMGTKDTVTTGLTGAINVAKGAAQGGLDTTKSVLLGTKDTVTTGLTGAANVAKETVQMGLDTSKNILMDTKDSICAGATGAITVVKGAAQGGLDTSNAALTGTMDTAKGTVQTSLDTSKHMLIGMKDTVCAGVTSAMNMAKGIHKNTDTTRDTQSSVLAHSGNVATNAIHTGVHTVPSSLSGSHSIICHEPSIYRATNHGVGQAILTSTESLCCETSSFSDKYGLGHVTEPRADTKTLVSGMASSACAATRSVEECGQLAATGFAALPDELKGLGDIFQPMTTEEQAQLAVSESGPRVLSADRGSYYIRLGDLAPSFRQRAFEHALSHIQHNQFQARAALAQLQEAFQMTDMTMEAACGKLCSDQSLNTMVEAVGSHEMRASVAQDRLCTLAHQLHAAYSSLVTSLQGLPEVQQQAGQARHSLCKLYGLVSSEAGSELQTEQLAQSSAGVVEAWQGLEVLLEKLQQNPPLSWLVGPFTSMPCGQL
Experiment: Crosslinking/co-immunoprecipitation/mass spectrometry (TMT quantitative proteomics) to identify irisin receptors
Type: binding
Details: co-precipitated protein Plin4 (PLIN4_MOUSE)
In short: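 Mouse MLO-Y4 cells were switched to serum-free FreeStyle medium for 4 h, chilled, then exposed to 10 nM His-tagged irisin (or adipsin as control) for 20 min. Cells were crosslinked with 1.5 mM DTSSP (30 min, ice), and bound proteins were pulled down on Ni-NTA and eluted with 250 mM imidazole. Eluates were separated by SDS-PAGE, trypsin-digested in gel, TMT 6-plex labelled and quantified by MS3-based LC-MS/MS on an Orbitrap Fusion Lumos.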

B1: irisin: secreted cleaved form of FNDC5; recombinant human/mouse irisin with C-terminal his tag produced in HEK293 cells (protein)
chain: DSPSAPVNVTVRHLKANSAVVSWDVLEDEVVIGFAISQQKKDVRMLRFIQEVNTTTRSCALWDLEEDTEYIVHVQAISIQGQSPASEPVLFKTPREAEKMASKNKDEVTMKE
modifications: left off: small tags and cut ends
notes: secreted cleaved form of FNDC5; recombinant human/mouse irisin with C-terminal his tag produced in HEK293 cells
  TMT signal-to-noise ratio: 18.9196
  irisin/adipsin TMT signal-to-noise ratio: 0.169
